Tests used:
biotinylated IgG [1] = test: BIAcore; half-life calculated as 0.693/koff/60
biotinylated IgG [2] = test: BIAcore, biotinylated IgG immobilised, mutein injected

Chain of 2-aa-loop mutein (streptavidin, loop7-8 replaced by N G) (P22629 other isoform, or with tags, fused parts or gaps mutant): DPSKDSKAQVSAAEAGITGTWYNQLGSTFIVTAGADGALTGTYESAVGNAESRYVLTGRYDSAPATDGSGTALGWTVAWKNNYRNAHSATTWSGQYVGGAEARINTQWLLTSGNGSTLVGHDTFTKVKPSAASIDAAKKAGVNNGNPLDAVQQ
Chain of 6-aa-loop mutein (streptavidin, loop7-8 replaced by D S N G S G) (P22629 other isoform, or with tags, fused parts or gaps mutant): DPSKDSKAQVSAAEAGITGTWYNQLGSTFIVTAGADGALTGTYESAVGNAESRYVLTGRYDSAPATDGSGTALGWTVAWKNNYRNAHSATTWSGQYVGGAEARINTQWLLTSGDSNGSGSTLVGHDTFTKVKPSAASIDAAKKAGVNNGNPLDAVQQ

Row | t1/2 (biotinylated IgG [1]) | Kd (biotinylated IgG [2]) | koff (biotinylated IgG [2]) | kon (biotinylated IgG [2]) | Substance
1 | 2.75 h | 1.12 nM | 7.02e-05 s⁻¹ | 63000 M⁻¹ s⁻¹ | 2-aa-loop mutein (streptavidin, loop7-8 replaced by N G) (from UniProt P22629 25-183)
2 | 2.53 h | 3.13 nM | 7.59e-05 s⁻¹ | 24300 M⁻¹ s⁻¹ | 6-aa-loop mutein (streptavidin, loop7-8 replaced by D S N G S G) (from UniProt P22629 25-183)
3 | 0.45 h | 19 nM | 0.000428 s⁻¹ | 22100 M⁻¹ s⁻¹ | 8-aa-loop-H127C mutein (streptavidin, loop7-8 replaced by D S S N G S D G, with H127C) (from UniProt P22629 25-183)
4 | 0.482 h | 8.1 nM | 0.0004 s⁻¹ | 49600 M⁻¹ s⁻¹ | ΔW-HC mutein (streptavidin with Trp-120 deleted and H127C) (from UniProt P22629 25-183)
